These results are taken from US9029508 (dated 2015).

For orientation: EC50 means the concentration that produces a half-maximal response. Higher therefore signals lower potency in that assay.

First the molecules themselves.
B1: DVD465 DLL4 arm (antibody)
chain 1: EVQLVESGGGLVQPGGSLRLSCAASGFTFTDNWISWVRQAPGKGLEWVGYISPNSGFTYYADSVKGRFTISADTSKNTAYLQMNSLRAEDTAVYYCARDNFGGYFDYWGQGTLVTVSS
chain 2: DIQMTQSPSSLSASVGDRVTITCRASQDVSTAVAWYQQKPGKAPKLLIYSASFLYSGVPSRFSGSGSGTDFTLTISSLQPEDFATTYYCQQSYTGTVTFGQGTKVEIKR
modifications: DVD-Ig outer
B2: DVD466 DLL4 arm (antibody)
chain 1: EVQLVESGGGLVQPGGSLRLSCAASGFTFTDNWISWVRQAPGKGLEWVGYISPNSGFTYYADSVKGRFTISADTSKNTAYLQMNSLRAEDTAVYYCARDNFGGYFDYWGQGTLVTVSS
chain 2: DIQMTQSPSSLSASVGDRVTITCRASQDVSTAVAWYQQKPGKAPKLLIYSASFLYSGVPSRFSGSGSGTDFTLTISSLQPEDFATTYYCQQSYTGTVTFGQGTKVEIKR
modifications: DVD-Ig inner
B3: DVD469 DLL4 arm (antibody)
chain 1: EVQLVESGGGLVQPGGSLRLSCAASGFTFTDNWISWVRQAPGKGLEWVGYISPNSGFTYYADSVKGRFTISADTSKNTAYLQMNSLRAEDTAVYYCARDNFGGYFDYWGQGTLVTVSS
chain 2: DIQMTQSPSSLSASVGDRVTITCRASQDVSTAVAWYQQKPGKAPKLLIYSASFLYSGVPSRFSGSGSGTDFTLTISSLQPEDFATTYYCQQSYTGTVTFGQGTKVEIKR
modifications: DVD-Ig outer
B4: DVD483 DLL4 arm (antibody)
chain 1: EVQLVESGGGLVQPGGSLRLSCAASGFTFTDNWISWVRQAPGKGLEWVGYISPNSGFTYYADSVKGRFTISADTSKNTAYLQMNSLRAEDTAVYYCARDNFGGYFDYWGQGTLVTVSS
chain 2: DIQMTQSPSSLSASVGDRVTITCRASQDVSTAVAWYQQKPGKAPKLLIYSASFLYSGVPSRFSGSGSGTDFTLTISSLQPEDFATTYYCQQSYTGTVTFGQGTKVEIKR
modifications: DVD-Ig outer
B5: DVD523 DLL4 arm (antibody, V domains shown)
VH: EVQLQQSGPELEKPGASVKISCKASGYSFTGYNMNWVKQSNGKSLEWIGNIDPYFGGTNYNQKFKGKATLTVDKSSSTAYMQLKSLTSEDSAVYYCARNYDYDGGCFDYWGQGTTLTVSS
VL: QAVVTQESALTTSPGETVTLTCRSSTGAVTTSNYANWVQEKPDHLFTGLIGGTNNRAPGVPARFSGSLIGDKAALTITGAQTEDEAIYFCALWYSNHWVFGGGTKLTVLG
modifications: DVD-Ig outer
B6: DVD533 DLL4 arm (antibody, V domains shown)
VH: EVQLQQSGPELEKPGASVKISCKASGYSFTGYNMNWVKQSNGKSLEWIGNIDPYFGGTNYNQKFKGKATLTVDKSSSTAYMQLKSLTSEDSAVYYCARNYDYDGGCFDYWGQGTTLTVSS
VL: QAVVTQESALTTSPGETVTLTCRSSTGAVTTSNYANWVQEKPDHLFTGLIGGTNNRAPGVPARFSGSLIGDKAALTITGAQTEDEAIYFCALWYSNHWVFGGGTKLTVLG
modifications: DVD-Ig outer
B7: DVD511 DLL4 arm (antibody, V domains shown)
VH: EVQLQQSGPELEKPGASVKISCKASGYSFTGYNMNWVKQSNGKSLEWIGNIDPYFGGTNYNQKFKGKATLTVDKSSSTAYMQLKSLTSEDSAVYYCARNYDYDGGCFDYWGQGTTLTVSS
VL: QAVVTQESALTTSPGETVTLTCRSSTGAVTTSNYANWVQEKPDHLFTGLIGGTNNRAPGVPARFSGSLIGDKAALTITGAQTEDEAIYFCALWYSNHWVFGGGTKLTVLG
modifications: DVD-Ig outer
B8: DVD532 DLL4 arm (antibody, V domains shown)
VH: EVQLQQSGPELEKPGASVKISCKASGYSFTGYNMNWVKQSNGKSLEWIGNIDPYFGGTNYNQKFKGKATLTVDKSSSTAYMQLKSLTSEDSAVYYCARNYDYDGGCFDYWGQGTTLTVSS
VL: QAVVTQESALTTSPGETVTLTCRSSTGAVTTSNYANWVQEKPDHLFTGLIGGTNNRAPGVPARFSGSLIGDKAALTITGAQTEDEAIYFCALWYSNHWVFGGGTKLTVLG
modifications: DVD-Ig inner
B9: DVD525 DLL4 arm (antibody, V domains shown)
VH: EVQLQQSGPELEKPGASVKISCKASGYSFTGYNMNWVKQSNGKSLEWIGNIDPYFGGTNYNQKFKGKATLTVDKSSSTAYMQLKSLTSEDSAVYYCARNYDYDGGCFDYWGQGTTLTVSS
VL: QAVVTQESALTTSPGETVTLTCRSSTGAVTTSNYANWVQEKPDHLFTGLIGGTNNRAPGVPARFSGSLIGDKAALTITGAQTEDEAIYFCALWYSNHWVFGGGTKLTVLG
modifications: DVD-Ig outer
B10: DVD526 DLL4 arm (antibody, V domains shown)
VH: EVQLQQSGPELEKPGASVKISCKASGYSFTGYNMNWVKQSNGKSLEWIGNIDPYFGGTNYNQKFKGKATLTVDKSSSTAYMQLKSLTSEDSAVYYCARNYDYDGGCFDYWGQGTTLTVSS
VL: QAVVTQESALTTSPGETVTLTCRSSTGAVTTSNYANWVQEKPDHLFTGLIGGTNNRAPGVPARFSGSLIGDKAALTITGAQTEDEAIYFCALWYSNHWVFGGGTKLTVLG
modifications: DVD-Ig inner
B11: DVD449 DLL4 arm (antibody, V domains shown)
VH: QVQLVQSGAEVKKPGASVKISCKASGYSFTAYYIHWVKQAPGQGLEWIGYISSYNGATNYNQKFKGRVTFTTDTSTSTAYMELRSLRSDDTAVYYCARDYDYDVGMDYWGQGTLVTVSS
VL: DIVMTQSPDSLAVSLGERATISCRASESVDNYGISFMKWFQQKPGQPPKLLIYAASNQGSGVPDRFSGSGSGTDFTLTISSLQAEDVAVYYCQQSKEVPWTFGGGTKVEIKR
modifications: DVD-Ig outer
B12: DVD442 DLL4 arm (antibody, V domains shown)
VH: QVQLVQSGAEVKKPGASVKISCKASGYSFTAYYIHWVKQAPGQGLEWIGYISSYNGATNYNQKFKGRVTFTTDTSTSTAYMELRSLRSDDTAVYYCARDYDYDVGMDYWGQGTLVTVSS
VL: DIVMTQSPDSLAVSLGERATISCRASESVDNYGISFMKWFQQKPGQPPKLLIYAASNQGSGVPDRFSGSGSGTDFTLTISSLQAEDVAVYYCQQSKEVPWTFGGGTKVEIKR
modifications: DVD-Ig inner
B13: DVD441 DLL4 arm (antibody, V domains shown)
VH: QVQLVQSGAEVKKPGASVKISCKASGYSFTAYYIHWVKQAPGQGLEWIGYISSYNGATNYNQKFKGRVTFTTDTSTSTAYMELRSLRSDDTAVYYCARDYDYDVGMDYWGQGTLVTVSS
VL: DIVMTQSPDSLAVSLGERATISCRASESVDNYGISFMKWFQQKPGQPPKLLIYAASNQGSGVPDRFSGSGSGTDFTLTISSLQAEDVAVYYCQQSKEVPWTFGGGTKVEIKR
modifications: DVD-Ig outer
B14: DVD454 DLL4 arm (antibody, V domains shown)
VH: QVQLVQSGAEVKKPGASVKISCKASGYSFTAYYIHWVKQAPGQGLEWIGYISSYNGATNYNQKFKGRVTFTTDTSTSTAYMELRSLRSDDTAVYYCARDYDYDVGMDYWGQGTLVTVSS
VL: DIVMTQSPDSLAVSLGERATISCRASESVDNYGISFMKWFQQKPGQPPKLLIYAASNQGSGVPDRFSGSGSGTDFTLTISSLQAEDVAVYYCQQSKEVPWTFGGGTKVEIKR
modifications: DVD-Ig inner
B15: DVD462 DLL4 arm (antibody, V domains shown)
VH: QVQLVQSGAEVKKPGASVKISCKASGYSFTAYYIHWVKQAPGQGLEWIGYISSYNGATNYNQKFKGRVTFTTDTSTSTAYMELRSLRSDDTAVYYCARDYDYDVGMDYWGQGTLVTVSS
VL: DIVMTQSPDSLAVSLGERATISCRASESVDNYGISFMKWFQQKPGQPPKLLIYAASNQGSGVPDRFSGSGSGTDFTLTISSLQAEDVAVYYCQQSKEVPWTFGGGTKVEIKR
modifications: DVD-Ig inner
B16: DVD487 DLL4 arm (antibody, V domains shown)
VH: EVQLQQSGPELVKPGASVKMSCKASGYTFTSYVINWVKQKPGQGLEWIGLINPYNDGTKYNEKFKVKATLTSDKSSSTAYMELSSLTSEDSAVYYCASYYYGSRYYFDYWGQGTTLTVSS
VL: DIQMTQSSSYLSVSLGGRVTITCKASDHINNWLAWYQQKPGNAPRLLISGATSLETGVPSRFSGSGSGKDYTLSITSLQTEDVATYYCQQYWSIPLTFGAGTKLELKR
modifications: DVD-Ig outer
B17: DVD510 DLL4 arm (antibody, V domains shown)
VH: EVQLQQSGPELVKPGASVKMSCKASGYTFTSYVINWVKQKPGQGLEWIGLINPYNDGTKYNEKFKVKATLTSDKSSSTAYMELSSLTSEDSAVYYCASYYYGSRYYFDYWGQGTTLTVSS
VL: DIQMTQSSSYLSVSLGGRVTITCKASDHINNWLAWYQQKPGNAPRLLISGATSLETGVPSRFSGSGSGKDYTLSITSLQTEDVATYYCQQYWSIPLTFGAGTKLELKR
modifications: DVD-Ig inner
B18: DVD504 DLL4 arm (antibody, V domains shown)
VH: EVQLQQSGPELVKPGASVKMSCKASGYTFTSYVINWVKQKPGQGLEWIGLINPYNDGTKYNEKFKVKATLTSDKSSSTAYMELSSLTSEDSAVYYCASYYYGSRYYFDYWGQGTTLTVSS
VL: DIQMTQSSSYLSVSLGGRVTITCKASDHINNWLAWYQQKPGNAPRLLISGATSLETGVPSRFSGSGSGKDYTLSITSLQTEDVATYYCQQYWSIPLTFGAGTKLELKR
modifications: DVD-Ig inner
B19: DVD493 DLL4 arm (antibody, V domains shown)
VH: EVQLQQSGPELVKPGASVKMSCKASGYTFTSYVINWVKQKPGQGLEWIGLINPYNDGTKYNEKFKVKATLTSDKSSSTAYMELSSLTSEDSAVYYCASYYYGSRYYFDYWGQGTTLTVSS
VL: DIQMTQSSSYLSVSLGGRVTITCKASDHINNWLAWYQQKPGNAPRLLISGATSLETGVPSRFSGSGSGKDYTLSITSLQTEDVATYYCQQYWSIPLTFGAGTKLELKR
modifications: DVD-Ig outer
B20: DVD498 DLL4 arm (antibody, V domains shown)
VH: EVQLQQSGPELVKPGASVKMSCKASGYTFTSYVINWVKQKPGQGLEWIGLINPYNDGTKYNEKFKVKATLTSDKSSSTAYMELSSLTSEDSAVYYCASYYYGSRYYFDYWGQGTTLTVSS
VL: DIQMTQSSSYLSVSLGGRVTITCKASDHINNWLAWYQQKPGNAPRLLISGATSLETGVPSRFSGSGSGKDYTLSITSLQTEDVATYYCQQYWSIPLTFGAGTKLELKR
modifications: DVD-Ig inner
B21: DVD505 DLL4 arm (antibody, V domains shown)
VH: EVQLQQSGPELVKPGASVKMSCKASGYTFTSYVINWVKQKPGQGLEWIGLINPYNDGTKYNEKFKVKATLTSDKSSSTAYMELSSLTSEDSAVYYCASYYYGSRYYFDYWGQGTTLTVSS
VL: DIQMTQSSSYLSVSLGGRVTITCKASDHINNWLAWYQQKPGNAPRLLISGATSLETGVPSRFSGSGSGKDYTLSITSLQTEDVATYYCQQYWSIPLTFGAGTKLELKR
modifications: DVD-Ig outer

The target of this assay is DLL4 (human, UniProt Q9NR61). Nature of the assay: ELISA. Background: An ELISA detects its analyte on a solid surface through an enzyme-linked reagent.
DLL4, sequence (Q9NR61 27-524): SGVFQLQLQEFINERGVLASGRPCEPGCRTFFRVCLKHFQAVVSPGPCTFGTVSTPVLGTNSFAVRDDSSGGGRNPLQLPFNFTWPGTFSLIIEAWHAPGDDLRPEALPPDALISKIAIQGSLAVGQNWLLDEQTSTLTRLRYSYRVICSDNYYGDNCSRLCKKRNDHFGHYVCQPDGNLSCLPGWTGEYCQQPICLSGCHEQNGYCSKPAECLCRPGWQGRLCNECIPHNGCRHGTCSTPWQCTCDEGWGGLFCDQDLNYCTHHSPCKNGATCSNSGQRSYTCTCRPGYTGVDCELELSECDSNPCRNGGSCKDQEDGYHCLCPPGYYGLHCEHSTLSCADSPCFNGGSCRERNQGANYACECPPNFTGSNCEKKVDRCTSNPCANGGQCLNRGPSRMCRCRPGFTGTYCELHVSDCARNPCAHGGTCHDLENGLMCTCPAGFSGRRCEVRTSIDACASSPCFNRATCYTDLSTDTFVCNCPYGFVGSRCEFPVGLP
As to B1, the EC50 was determined as 0.57 nM.
With B2 the figure was 19.8 nM; with B3, 2.78 nM.
On to B4, for which the response was half-maximal at 0.63 nM (EC50).
With B5 the figure was 0.09 nM; with B6, 0.25 nM; with B7, 0.1 nM.
Molecule B8 returned an EC50 of 1.43 nM.
Under B9 stands 1 nM; under B10, 1.57 nM.
B11 yielded an EC50 of 0.36 nM.
Regarding B12, the midpoint of the response, the EC50, lay at 10.6 nM.
Under B13 stands 0.04 nM; under B14, 1.01 nM.
Under B15 stands 7.99 nM; under B16, 0.14 nM; under B17, 0.42 nM.
Under B18 stands 0.53 nM; under B19, 0.06 nM.
Regarding B20, the midpoint of the response, the EC50, lay at 0.45 nM.
Under B21 stands 0.09 nM.
